This note sets out measurements from US20060251733A1.

Where only a bound is given, the exact number is not on record here.

This experiment concerns the target FcγR (receptor for the Fc portion of immunoglobulin molecule) on bone marrow derived macrophages (mouse). The experiment in a line: cell-based or functional assay.

With “IgG-opsonized erythrocytes (E-IgG): sheep erythrocytes (SRBC) opsonized with rabbit IgG antibody to SRBC”, the IL-10 production by BMMφ (ELISA of supernatants), LPS + E-IgG is 10 ng/mL and the IL-10 production by BMMφ (ELISA of supernatants), LPS + E-IgG against LPS alone is over 5 fold.
